The source of these data is patent US20240294650A1 (Alector, published 2024).

The labels stand for the following.
T1: MerTK C-terminal ECD Half-and-half chimera (human)
T1 construct: tested as culture supernatant; also called MerTK C-term half-and-half chimera; MerTK C-terminal ECD (FN1-FN2-JM) + Axl N-terminal ECD (NT-Ig1-Ig2)
T1 chain: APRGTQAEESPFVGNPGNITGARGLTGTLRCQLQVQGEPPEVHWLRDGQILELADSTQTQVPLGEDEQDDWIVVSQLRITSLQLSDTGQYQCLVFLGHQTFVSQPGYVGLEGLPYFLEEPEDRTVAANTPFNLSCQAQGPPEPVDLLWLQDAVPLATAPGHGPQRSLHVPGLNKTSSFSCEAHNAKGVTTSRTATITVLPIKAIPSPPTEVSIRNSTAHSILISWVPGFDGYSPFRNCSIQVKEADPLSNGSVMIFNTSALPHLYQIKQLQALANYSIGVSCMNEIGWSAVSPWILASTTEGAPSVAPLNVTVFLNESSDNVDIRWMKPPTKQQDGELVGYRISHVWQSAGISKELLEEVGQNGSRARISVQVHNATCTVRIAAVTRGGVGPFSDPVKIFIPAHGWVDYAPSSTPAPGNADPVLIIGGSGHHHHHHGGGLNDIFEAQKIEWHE

T2: recombinant cynomolgus MerTK extracellular domain (cynomolgus, UniProt Q12866 21-505 (human entry))
T2 construct: also called cyno MerTK ECD; not shown: polyHis or TEVS/Thrombin/murine IgG2a-Fc tag
T2 chain: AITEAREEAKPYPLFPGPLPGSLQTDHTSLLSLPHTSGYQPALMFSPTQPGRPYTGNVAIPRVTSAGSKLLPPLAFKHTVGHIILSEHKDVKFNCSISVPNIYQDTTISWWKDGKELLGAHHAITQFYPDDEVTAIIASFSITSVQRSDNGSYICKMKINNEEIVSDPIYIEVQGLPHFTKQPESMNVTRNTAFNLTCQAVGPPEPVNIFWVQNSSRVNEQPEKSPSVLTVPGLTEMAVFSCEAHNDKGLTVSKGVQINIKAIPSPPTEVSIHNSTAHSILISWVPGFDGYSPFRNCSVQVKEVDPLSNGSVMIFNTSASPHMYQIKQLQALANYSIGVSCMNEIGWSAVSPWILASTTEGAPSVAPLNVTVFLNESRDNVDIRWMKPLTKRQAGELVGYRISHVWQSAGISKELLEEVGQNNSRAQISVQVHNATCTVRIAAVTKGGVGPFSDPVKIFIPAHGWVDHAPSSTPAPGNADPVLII

B1: MTK-223 (antibody, human IgG1, V domains shown)
VH: DVQLQESGPGLVKPSQSLSLTCSVTGYSITSGYYWNWIRQFPGNKLEWMGYISYDGTNNYNPSLKNRISITRDTSENQFFLKLNSVTTEDTATYFCVRGAGYWGQGTTLTVSS
VL: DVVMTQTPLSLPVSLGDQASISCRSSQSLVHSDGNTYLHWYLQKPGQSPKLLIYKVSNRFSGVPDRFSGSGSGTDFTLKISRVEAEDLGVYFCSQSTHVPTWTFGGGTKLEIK
B2: MTK-231 (antibody, human IgG1, V domains shown)
VH: DVQLQESGPGLVKPSQSLSLTCSVTGYSITSGYYWNWIRQFPGNKLEWMGYISYDGTYNYHPSLKNRISITRDTSKNQFFLTLNSVTTEDTATFYCTRGGGYWGQGTSVTVSS
VL: DVVMTQTPLSLPVSLGDQASISCRSSQSLVHSDGNTYLHWYLQKPGQSPKLLIYKVSNRFSGVPDRFSGSGSGTDFTLKISRLEAEDLGIYFCSQTTHIPLTFGSGTKLEIK
B3: MTK-213 (antibody, human IgG1, V domains shown)
VH: QVQLQQPGAELVKPGASVKMSCKASGYTFTSYWITWVKQRPGQGHEWIGEIYPGIGSTNYNEKFKSKATLTVDTSSRTAYMQLSSLTSEDSAVYFCARGAYTKYYFDYWGQGTTLTVSS
VL: DIVMTQSHKFMSTSVGDRVSITCKASQDVGDAVAWYQQKPGQTPKLLIYWASTRHTGVPDRFTGSGSGTDFTLTISNVQSEDLADYFCQQYSSYLMYTFGGGTKLEIK
B4: MTK-220 (antibody, V domains shown)
VH: EVQLVESGGGLVKPGGSLKLSCAASGFTFSDYGMHWVRQAPEKGLEWVAFISGGSGTIYYEDTVKGRFTISRDNAKNTLFLQMTSLRSEDTAMYYCTRGGNYFDYWGQGTTLTVSS
VL: NIMLTQSPSSLAVSAGEKVTMTCKSSQSVLYSSNQKNYLAWYQQKPGQSPKLLIYWASTRESGVPDRFTGSGSGTDFTLTISNVQAEDLAVYYCHQYFSSWTFGGGTKLEIK
B5: MTK-202 (antibody, human IgG1, V domains shown)
VH: EVQLVESGGGLVKPGGSLKLSCAASGFTFSDFGMHWVRQVPEKGLEWVAFISGGSNTIYYTDTVKGRFTISRDNAKNTLFLQMTSLRSEDTAMYYCVRNGNSFAYWGQGTLVTVSA
VL: NIMMTQSPSSLAVSAGEKVTMNCKSSQSVLYSSNQKNYLAWYQQKPGQSPKLLIYWASTRESGVPDRFTGSGSGTDFTLTISNIQAEDLAIYYCHQYFFSWTFGGGTKLEIK
B6: MTK-204 (antibody, human IgG1, V domains shown)
VH: EVQLVESGGGLVKPGGSLKLSCAASGFTFSDYGMHWVRQAPEKGLEWVAYISSGTSTIYYEDTVKGRFTISRDNAKNTLFLQMTSLRSEDTAMYYCARGGLLFDYWGQGTTLTVSS
VL: NIMMTQSPSSLAVSAGEKVTMSCKSSQSVLYSSNQKNYLAWYQQKPGQSPKLLIQWASTRESGVPDRFTGSGSETDFTLTIRSVQAEDLAVYYCHQYFSSWTFGGGTKLEIK
B7: MTK-225 (antibody, human IgG1, V domains shown)
VH: EVQLQQSGPELVKPGASVKIFCKASGYTFTAYNMDWVKQSHGKSLEWIGDINPNNGGTIYNQKFKGKATLTVDKSSSTAYMELRSLTSEDTAVYYCARRRRYGNTYYWYFDVWGTGTTVTVSS
VL: DIQMTQSPASLSVSVGETVTITCRASENIYSSLAWYQQKQGKSPQLLVYAATNLADGVPSRFSGSGSGTQFYLKINGLQSEDFGSYYCQHFWGTSYTFGGGTKLEIK
B8: MTK-218 (antibody, human IgG1, V domains shown)
VH: QVQLQQSGPELVKPGTSVKISCKASGYSFTSYYIHWVKQRPGQGLDWIGWIFPGNRNTQYNEKFKGKATLTADTSSSTAYMQLSSLTSEDSAVYYCARLGLIYALDYWGQGTSVTVSS
VL: DAVMTQTPLSLPVSLGDQASISCRSSQSLENSNGHTYLHWYLQKPGQSPQLLIYRVSNRFSGVQDRFSGSGSGTDFTLKISRVEAEDLGVYFCLQVTHVPFTFGSGTKLEIK
B9: MTK-226 (antibody, human IgG1, V domains shown)
VH: QVQLQQSGPELVKPGASVKISCKASGYSFTSYYIHWVKQRPGQGLEWIGWIFPGNGNTKYNENFRGKATLTADTSSSTAYMQLSSLTSEDSAVYYCARLGLIYALDYWGQGTSVTVSS
VL: DAVMTQTPLSLPVSLGDQASISCRSSQSLESSNGNTYLHWYLQKPGQSPQLLIYRVSNRFSGVLDRFSGSGSGTDFTLQISRVEAEDLGVYFCLQVTHVPFTFGSGTKLEIK
B10: MTK-212 (antibody, human IgG1, V domains shown)
VH: QVQLQQSGPELVKPGASVKISCKASGYAFSSSWVNWVKQRPGKGLEWIGRIYPGDGDSNYNGNFKGKATLTADKSSNTAYLQLSSLTSEDSAVYFCARKSHFIYYTLDYWGQGTPVTVSS
VL: DIVMTQSHKFKSTSVGDRVSIACKASQDVGTSVAWYQQKPGKSPKLLIYWASSRHTGVPDRFTGSGSGTDFTLTISNVQSEDLTDYFCQQYSTYPYTFGGGTKLEIK
B11: MTK-207 (antibody, human IgG1, V domains shown)
VH: QVQLKESGPGLVAPSQSLSITCTVSGISLTSYGVSWVRQPPGKGLEWLGIIWGDGSTNYHSALISRLSISKDNSKSQVFLKLNSLQTDDTATYYCAKGRYGNYEDWYFDVWGTGTTVTVSS
VL: DIQMTQSPASLSASVGETVTITCRASGNIHNYLAWYQQKQGKSPQLLVYNAKTLAAGVPSRFSGSGSGTQYSLKINSLQPEDFGSYYCQHFWSIPLTFGAGTKLELK
B12: MTK-216 (antibody, human IgG1, V domains shown)
VH: EVQLVESGGGLVKPGGSLKLSCAASGFTFSDYGMHWVRQAPEKGLEWVAFISSGSTTIYYADTVKGRFTISRDNAKNTLILQMTSLRSEDTAIYYCTRGGFHLDYWGQGTTLTVSS
VL: SIMMTQSPSSLAVSAGEKVTMGCKSSQSVLYSANQQNYLAWYQQKPGQSLKLLIYWASTRESGVPDRFTGSGSGTDFTLTISSVQAEDLAVYYCHQYFSSWTFGGGTKLEIK

The target of the first experiment is T1, MerTK C-terminal ECD Half-and-half …. Put plainly: SPR, construct supernatant over immobilised Ab. The method in brief:
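Read-out is loss of binding to MerTK deletion or Axl-swap constructs, or gain of binding to Axl constructs carrying MerTK domains, mapped to human MerTK domains. Antibodies sat on the chip by amine coupling; diluted supernatants flowed over them.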
In general terms: In SPR one partner is held on a chip, and binding of the other changes the refractive index at the surface.
B1: the binding result is on record as “no binding”.

On to B2, for which the binding result was “no binding”.

On to B3, for which the binding result was “no binding”.

As to B4, the binding result was “no binding”.

Take B5: the binding result is given as “no binding”.

With B6, the binding result was “no binding”.

B7: the binding result is “no binding”.

Regarding B8, the binding result is “no binding”.

Consider B9, for which the binding result is on record as “no binding”.

As for B10, the binding result was “no binding”.

For the next experiment, the target named is T2, recombinant cynomolgus MerTK …. Description: SPR Carterra LSA, Ab immobilised; LB = low binding (below limit of measurement), KD not determined.
Regarding B11, the binding result was “binds”.

On to B12, for which the binding result is listed as “binds”.
